According to paper PMC5283164:
One block for each substance: values may come before it.

Columns and labels:
[1] = molecular target: SNP-treated (S-nitrosylated) pea chloroplast 2-Cys Prx (Pisum sativum (pea)); test: SEC; Superdex-200 HR 10/30, 50 mM Tris-HCl pH 7.5, 150 mM NaCl; DTT-reduced protein incubated with 750 uM SNP, excess removed
[2] = molecular target: chloroplast 2-Cys Prx from pea (Pisum sativum), recombinant, not glutathionylated (Pisum sativum (pea)); test: SEC; Superdex-200 HR 10/30, room temperature, 50 mM Tris-HCl pH 7.5, 150 mM NaCl, 0.5 mL/min; untreated (native) protein
[3] = molecular target: chloroplast 2-Cys Prx from pea (Pisum sativum), recombinant, not glutathionylated (Pisum sativum (pea)); test: SEC; Superdex-200 HR 10/30, room temperature, 50 mM Tris-HCl pH 7.5, 150 mM NaCl; protein (50 uM) reduced with 10 mM DTT for 30 min, excess DTT removed
[4] = molecular target: glutathionylated pea mitochondrial Prx IIF (Cys59-SG, Cys84-SG) (Pisum sativum (pea)); test: SEC; Superdex-200 HR 10/30, 50 mM Tris-HCl pH 7.5, 150 mM NaCl; DTT-reduced protein incubated with 5 mM GSNO at room temperature (different incubation times for 2-Cys Prx), excess removed
[5] = molecular target: glutathionylated pea mitochondrial Prx IIF (Cys59-SG, Cys84-SG) (Pisum sativum (pea)); test: SEC; Superdex-200 HR 10/30, 50 mM Tris-HCl pH 7.5, 150 mM NaCl; DTT-reduced protein incubated with 5 mM GSSG at 4 C for 24 h, excess removed
[6] = molecular target: mitochondrial Prx IIF from pea (Pisum sativum), recombinant, not glutathionylated (Pisum sativum (pea)); test: SEC; Superdex-200 HR 10/30, room temperature, 50 mM Tris-HCl pH 7.5, 150 mM NaCl, 0.5 mL/min; untreated (native) protein
[7] = molecular target: mitochondrial Prx IIF from pea (Pisum sativum), recombinant, not glutathionylated (Pisum sativum (pea)); test: SEC; Superdex-200 HR 10/30, room temperature, 50 mM Tris-HCl pH 7.5, 150 mM NaCl; protein (50 uM) reduced with 10 mM DTT for 30 min, excess DTT removed

stoichiometry N [1]: 10
Substance: SNP-treated (S-nitrosylated) pea chloroplast 2-Cys Prx (enzyme)

stoichiometry N [2]: 2
stoichiometry N [3]: 10
Substance: chloroplast 2-Cys Prx from pea (Pisum sativum), recombinant, not glutathionylated (enzyme)

stoichiometry N [4]: 2
stoichiometry N [5]: 2
Substance: glutathionylated pea mitochondrial Prx IIF (Cys59-SG, Cys84-SG) (enzyme)

stoichiometry N [6]: 6
stoichiometry N [7]: 2
Substance: mitochondrial Prx IIF from pea (Pisum sativum), recombinant, not glutathionylated (enzyme)
